{"source": "patent US10927175B2", "about": "“Method for treating cancer” (Sun Jet Biotechnology Inc., priority 2017, dated 2021)", "origin": "cited, not measured here", "test_system": "metastatic duodenal adenocarcinoma", "conditions": "gradually decreasing prednisolone and replacing tacrolimus with sirolimus after nivolumab"}
{"substance": "nivolumab", "values": [{"measurement": "allograft outcome", "result": "preserved"}, {"measurement": "tumor outcome", "result": "regressed"}]}
